According to patent US20250215095:

How the values were obtained:
[1] = test system: internally quenched peptide probe with CM PWGLSGAS (SEQ ID NO: 692)
[2] = test system: internally quenched peptide probe with CM PWGLAGRS (SEQ ID NO: 690)
[3] = test system: internally quenched peptide probe with CM PWGLSARS (SEQ ID NO: 691)
[4] = test system: internally quenched peptide probe with CM PWGLSGKS (SEQ ID NO: 150)
[5] = test system: internally quenched peptide probe with CM LSGKSPWGL (SEQ ID NO: 178)
[6] = test system: internally quenched peptide probe with CM WGLSGRS (SEQ ID NO: 685)
[7] = test system: internally quenched peptide probe with CM PWGLSGRA (SEQ ID NO: 693)
[8] = test system: internally quenched peptide probe with CM PWGLSGR (SEQ ID NO: 163)
[9] = test system: internally quenched peptide probe with CM PWGLSG (SEQ ID NO: 684)
[10] = test system: internally quenched peptide probe with CM RSPWGL (SEQ ID NO: 90)
[11] = test system: internally quenched peptide probe with CM LSGRSPAGL (SEQ ID NO: 694)
[12] = test system: internally quenched peptide probe with CM PAGLSGRS (SEQ ID NO: 687)
[13] = test system: internally quenched peptide probe with CM PWGLSGRS (SEQ ID NO: 12)
[14] = test system: internally quenched peptide probe with CM PWGASGRS (SEQ ID NO: 689)
[15] = test system: internally quenched peptide probe with CM AWGLSGRS (SEQ ID NO: 686)
[16] = test system: internally quenched peptide probe with CM LSGRSPWGL (SEQ ID NO: 177)
[17] = test system: internally quenched peptide probe with CM PWGLRS (SEQ ID NO: 48)
[18] = test system: internally quenched peptide probe with CM PWALSGRS (SEQ ID NO: 688)

matrix metalloprotease 9 (MMP9), sequence (chain, as listed by the source): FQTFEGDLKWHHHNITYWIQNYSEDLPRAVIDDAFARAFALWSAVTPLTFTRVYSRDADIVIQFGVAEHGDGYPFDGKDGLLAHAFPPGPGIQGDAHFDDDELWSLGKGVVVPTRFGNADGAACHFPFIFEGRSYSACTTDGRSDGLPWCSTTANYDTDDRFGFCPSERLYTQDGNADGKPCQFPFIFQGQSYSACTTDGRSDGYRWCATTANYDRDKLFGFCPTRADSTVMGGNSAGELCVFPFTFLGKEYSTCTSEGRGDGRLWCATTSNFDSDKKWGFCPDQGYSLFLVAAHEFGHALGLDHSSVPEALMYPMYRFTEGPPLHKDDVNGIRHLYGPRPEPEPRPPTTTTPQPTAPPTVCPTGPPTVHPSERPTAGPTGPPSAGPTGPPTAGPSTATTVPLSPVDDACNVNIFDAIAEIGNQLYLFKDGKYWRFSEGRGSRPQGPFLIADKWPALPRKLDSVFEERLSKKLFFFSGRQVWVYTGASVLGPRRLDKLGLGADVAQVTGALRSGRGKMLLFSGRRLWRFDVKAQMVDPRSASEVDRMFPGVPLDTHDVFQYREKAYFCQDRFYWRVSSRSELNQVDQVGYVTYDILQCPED

matrix metalloprotease 9 (MMP9)
Probe Cleavage (pM/s) [1]: 16400 pM/s
Probe Cleavage (pM/s) [2]: 13700 pM/s
Probe Cleavage (pM/s) [3]: 17500 pM/s
Probe Cleavage (kcat/KM (M^-1 s^-1)) [4]: 130000 M⁻¹ s⁻¹
Probe Cleavage (pM/s) [4]: 5360 pM/s
Probe Cleavage (pM/s) [5]: 630 pM/s
Probe Cleavage (pM/s) [6]: 581 pM/s
Probe Cleavage (pM/s) [7]: 17500 pM/s
Probe Cleavage (pM/s) [8]: 17200 pM/s
Probe Cleavage (pM/s) [9]: 13000 pM/s
Probe Cleavage (kcat/KM (M^-1 s^-1)) [10]: 870000 M⁻¹ s⁻¹
Probe Cleavage (pM/s) [10]: 25500 pM/s
Probe Cleavage (pM/s) [11]: 1630 pM/s
Probe Cleavage (pM/s) [12]: 16200 pM/s
Probe Cleavage (kcat/KM (M^-1 s^-1)) [13]: 150000 M⁻¹ s⁻¹
Probe Cleavage (pM/s) [13]: 7620 pM/s
Probe Cleavage (pM/s) [14]: 456 pM/s
Probe Cleavage (pM/s) [15]: 2070 pM/s
Probe Cleavage (pM/s) [16]: 1070 pM/s
Probe Cleavage (kcat/KM (M^-1 s^-1)) [17]: 150000 M⁻¹ s⁻¹
Probe Cleavage (pM/s) [17]: 3830 pM/s
Probe Cleavage (pM/s) [18]: 12800 pM/s
